Reference: paper PMC6703430, “Combining Mutations That Inhibit Two Distinct Steps of the ATP Hydrolysis Cycle Restores Wild-Type Function in the Lipopolysaccharide Transporter and Shows that ATP Binding Triggers Transport” (mBio, 2019)

Target: the molecule itself
Assay: crystal structure; ATP-bound His8-LptB^E163Q, 1.96 Å; hanging drops, reservoir 28% PEG 4000, 100 mM MES pH 6.75, 600 mM NaCl; space group C222(1)

B1: His8-LptB^E163Q (enzyme, E. coli, UniProt P0A9V1 1-241, looked up)
chain: MATLTAKNLAKAYKGRRVVEDVSLTVNSGEIVGLLGPNGAGKTTTFYMVVGIVPRDAGNIIIDDDDISLLPLHARARRGIGYLPQEASIFRRLSVYDNLMAVLQIRDDLSAEQREDRANELMEEFHIEHLRDSMGQSLSGGERRRVEIARALAANPKFILLDQPFAGVDPISVIDIKRIIEHLRDSGLGVLITDHNVRETLAVCERAYIVSQGHLIAHGTPTEILQDEHVKRVYLGEDFRL
notes: catalytically dead E163Q variant; the CTD is fully resolved up to L241, the last residue of LptB; A TEV protease cleavage site stands between the His8 tag and LptB; no TEV cleavage is described; also called His8TEV-LptB(E163Q); His-LptB(E163Q); source: E. coli KRX, pET28b(+)-His8TEV-LptB(E163Q), purified (Ni-NTA, gel filtration on Superdex 200); not shown: His8, N-terminal, kept
stoichiometry N: 2
